According to paper PMC7472703, “DNA methylation suppresses chitin degradation and promotes the wing development by inhibiting Bmara-mediated chitinase expression in the silkworm, Bombyx mori”:

Biological target: T1, Bmara (homeobox protein araucan) (Bombyx mori, UniProt A0A8R1WJM2 5-477)
T1 sequence: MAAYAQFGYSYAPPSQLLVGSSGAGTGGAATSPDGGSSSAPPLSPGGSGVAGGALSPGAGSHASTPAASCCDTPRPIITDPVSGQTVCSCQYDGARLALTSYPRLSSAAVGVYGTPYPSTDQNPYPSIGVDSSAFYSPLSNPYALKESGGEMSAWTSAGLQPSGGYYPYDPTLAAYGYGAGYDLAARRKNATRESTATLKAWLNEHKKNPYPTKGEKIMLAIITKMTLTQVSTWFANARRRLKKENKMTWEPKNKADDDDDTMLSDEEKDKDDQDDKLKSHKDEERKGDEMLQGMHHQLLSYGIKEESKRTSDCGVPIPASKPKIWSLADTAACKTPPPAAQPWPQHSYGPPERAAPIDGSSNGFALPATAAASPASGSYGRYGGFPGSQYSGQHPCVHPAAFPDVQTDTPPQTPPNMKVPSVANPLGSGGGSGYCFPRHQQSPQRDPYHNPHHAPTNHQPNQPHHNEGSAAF
Experiment: EMSA; 5 mM MgCl2, 4 mM EDTA; EMSA: 50 mM KCl, 5 mM MgCl2, 4 mM EDTA, 2.5% glycerol, 0.05% NP-40, 50 ng poly(dI-dC), 20 fmol probe, 20 uL, 20 min RT. Pull-down: 10 mM HEPES pH 7.6, 100 mM K
Details: protein: recombinant; tags: 6xHis (pET-28a/32a); label: 5' biotin; blunt

B1: Mut-CRE probe (dsDNA)
DNA 1: TTCAGTCCACGGCGTGACTTTCGACCGGA
DNA 2: TCCGGTCGAAAGTCACGCCGTGGACTGAA
Q: Does B1 bind?
A: no binding

B2: Wt CRE probe (BmCHT10 promoter -250 to -225; legend -250 to -221) (dsDNA)
DNA 1: TTCAGTCCACGGCTGTCTTTCAACACGGA
DNA 2: TCCGTGTTGAAAGACAGCCGTGGACTGAA
Q: Does B2 bind?
A: binds
